The data set concerns ATP. Nature of the data set: switch fluorescence ratio, 500 uM ATP over buffer (Cy3 cluster intensity, sum of 5 cycles each) (fold (ratio)); higher = stronger signal-on switching upon ATP binding; sequences stand for … in TCGTCGGCAGCGTCAGATGTGTATAAGAGACAGTTTTTTTTTTTTTTTTTTTTTTTTT…TC. To be noted: aptamer strand: ATP DNA aptamer (quencher-CACCTGGGGGAGTATTGCGGAGGAAGG + anchor), 100 nM annealed; ATP concentration: 500 uM. An outline of the steps: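 The quencher-labelled ATP aptamer, at 100 nM, was annealed to Cy3-labelled switching-strand clusters on a modified Illumina MiSeq flow-cell. The clusters were imaged in selection buffer, then after 15 min with 500 uM ATP at 22 °C, and this buffer/ATP cycle ran five times with NaOH stripping and re-annealing between runs. Per-cluster fluorescence ratios, summed target-cycle over summed buffer-cycle Cy3 intensity, were averaged per switch-domain sequence. Clusters outside 100-1000 RFU were excluded.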

In the supplement of paper PMC10126150 one finds switch fluorescence ratio data, which are given here for 120 sequences.

± gives the standard deviation of the averaged measurements.
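Also: ATP exposure 15 min at 22 °C before imaging.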

Take GAGGGTTTGA: the switch fluorescence ratio was 1.0098 ± 0.00022.
In the case of TTGGGCCGTT it was 1.01 ± 0.035; in that of TTCTCATTTT, 1.01 ± 0.029; in that of GTATAATTTG, 0.9933 ± 0.0019.
Next, ATTGGGCTGC: 0.977 ± 0.01; ATGAGGTGCG: 0.972 ± 0.035.
In the case of TTATTTGTTA it was 1.01 ± 0.041; in that of CTCAGGAGGG, 0.997 ± 0.047.
ATTGGTTAGG: the switch fluorescence ratio worked out at 1.01 ± 0.028.
In the case of AGGAGGTATG it was 0.976 ± 0.027.
With TTGAAATTAA, the switch fluorescence ratio came out at 1.01 ± 0.025.
Take AATGGATAAC: the switch fluorescence ratio was 0.9862 ± 0.0045.
Take GGGAAGAAGC: the switch fluorescence ratio stood at 0.997 ± 0.054.
Consider TTTTGTTTTC, for which the switch fluorescence ratio stood at 1.11 ± 0.23.
In the case of TCAGGTGCGG, the switch fluorescence ratio worked out at 1.16 ± 0.061.
Next, TCGATAGCTG: 0.935 ± 0.046; CATGACCGAA: 1.014 ± 0.0039.
In the case of AGTGGGGGAT, the switch fluorescence ratio was found to be 0.988 ± 0.028.
Next, GGGGGGCGCA: 1.02 ± 0.038.
Next, AGGTATGGAG: 0.981 ± 0.065; GGTCTGGGGA: 1.024 ± 0.0073.
Take CGATGCTCTG: the switch fluorescence ratio is 1.01 ± 0.063.
In the case of TTAGGGGAGT it was 1.02 ± 0.066; in that of GAACAAGGGA, 1.004 ± 0.0086.
In the case of GCGTAAGGCC it was 1.14 ± 0.21.
AATAGGAATG: the switch fluorescence ratio was 0.996 ± 0.017.
In the case of TGCTTGGGGC it was 0.99 ± 0.059; in that of AGGTTAAGCA, 1.02 ± 0.0034.
In the case of ATTATTTACT, the switch fluorescence ratio is 1.018 ± 0.0017.
In the case of GTTGTTAAAT it was 1.011 ± 0.0047.
On to TTCAGCGATG, for which the switch fluorescence ratio was 1.024 ± 0.0081.
As for TATACAGGGG, the switch fluorescence ratio came to 1.2 ± 0.024.
In the case of ACGCTCCTGG it was 1.15 ± 0.034; in that of GGGGCGGAGG, 0.987 ± 0.047; in that of ACAAGACTGT, 1.04 ± 0.048.
Next, TAAAGGGAAT: 1.02 ± 0.056; AAGAAAGTGG: 0.993 ± 0.034; GGGAATTGTG: 0.993 ± 0.06.
In the case of TCTTGTATAA it was 0.9758 ± 0.0029; in that of TTTTATGCGA, 1.01 ± 0.02; in that of TTGTGAAGGG, 0.9663 ± 0.0013.
GACGAAAGGC: the switch fluorescence ratio was determined as 1.05 ± 0.02.
In the case of TCAAGTTTTT it was 1.012 ± 0.0044.
For GATTTACTGG, the switch fluorescence ratio worked out at 1.04 ± 0.024.
Next, AGGTCGGGAT: 1 ± 0.045; GTAAAATGGG: 0.997 ± 0.011.
Take GAAGAGAGGG: the switch fluorescence ratio was 1.016 ± 0.0092.
Next, GGGGTTATCG: 0.99 ± 0.029; CACTGTGTTG: 0.987 ± 0.035; CTGTGCTAAT: 1.1 ± 0.037.
Next, TCGCTAGATG: 1.4 ± 0.52; CCAAACGAGT: 0.9661 ± 0.0041; CTTTTAGAAC: 0.986 ± 0.027.
Next, AGGGGTACAG: 0.995 ± 0.04; TGGGCGTTCT: 1.03 ± 0.081; GGTGGGGGT: 1.35 ± 0.48.
With GGCGGGGCTT, the switch fluorescence ratio stood at 0.968 ± 0.025.
In the case of TAGTAGTCAA it was 1.03 ± 0.011; in that of AGATGAGAGA, 1 ± 0.016.
Regarding CAATGGGGTT, the switch fluorescence ratio was 1.02 ± 0.027.
In the case of AAATATTTTA, the switch fluorescence ratio is 0.999 ± 0.015.
In the case of AGAGGACCGA, the switch fluorescence ratio worked out at 1.04 ± 0.05.
For AAGGAGCTAT, the switch fluorescence ratio worked out at 1.05 ± 0.026.
Next, GGTTTTGAGG: 0.973 ± 0.011.
In the case of CGACAAGAGA, the switch fluorescence ratio was determined as 1.47 ± 0.085.
In the case of ACCCACTGGG it was 1.06 ± 0.03; in that of ATGTTCTCAA, 0.998 ± 0.01.
In the case of AGGATAAAGT it was 0.9875 ± 0.0077.
In the case of GCGGGTCTGC it was 0.963 ± 0.028; in that of GGTTACTGGT, 1.01 ± 0.03.
In the case of AAGTCGATTG, the switch fluorescence ratio turned out to be 0.99 ± 0.017.
TTCAAAGACT: the switch fluorescence ratio was 1.02 ± 0.049.
In the case of GATGCCGTAG it was 0.9997 ± 0.0036.
As for ATGAAGTGAA, the switch fluorescence ratio is 1 ± 0.034.
Turning to GGGGTGTATT, the switch fluorescence ratio stood at 0.984 ± 0.025.
Take GGTATGGTAC: the switch fluorescence ratio turned out to be 1.086 ± 0.0055.
For the sequence GTCCGGCAAT, the switch fluorescence ratio stood at 2.04 ± 0.33.
With CCTTCCTGTG, the switch fluorescence ratio was determined as 3.62 ± 0.024.
Take TATTGTTAAA: the switch fluorescence ratio stood at 0.987 ± 0.029.
For the sequence TTTCAAAAGA, the switch fluorescence ratio amounted to 1 ± 0.048.
Next, AGCAGGGCTG: 0.99566 ± 0.00073; ACGGGGTGTT: 1 ± 0.04; TGTACCGTGC: 1.07 ± 0.068.
As to TATTAAGGAT, the switch fluorescence ratio amounted to 1 ± 0.031.
For GGGAGCCTAC, the switch fluorescence ratio amounted to 1.038 ± 0.0081.
With TGGTTTCCTT, the switch fluorescence ratio stood at 0.955 ± 0.025.
Next, CGGCGCTGGA: 1.01 ± 0.055; AAATAGAGTT: 0.998 ± 0.013; CTGGGTTGGT: 0.972 ± 0.024.
Next, GGCAAAGGGG: 1.01 ± 0.041.
Turning to AGTGGTACTA, the switch fluorescence ratio is 0.991 ± 0.038.
As for TTGTATATTT, the switch fluorescence ratio is 0.982 ± 0.02.
Next, GATGTGCAAA: 1.01 ± 0.022.
Turning to TGCGCTTCTA, the switch fluorescence ratio stood at 0.98114 ± 0.00055.
Next, AAGGCAAATT: 0.986 ± 0.026; GCTGAGAATG: 0.999 ± 0.021; TAGCAGGCTA: 1 ± 0.013.
In the case of GCATTGCGGC it was 0.991 ± 0.019; in that of CTGGATAGAA, 1.01 ± 0.033; in that of GTTGGGGCCT, 1.03 ± 0.051.
Consider CAAAAAAGGG, for which the switch fluorescence ratio came to 1.02 ± 0.021.
For GTAGGCTAGT, the switch fluorescence ratio came out at 1 ± 0.033.
In the case of CTATCCGGAC it was 1.25 ± 0.014; in that of TGTGGGGATT, 1.02 ± 0.032.
In the case of AACGGTAAAT it was 1.01 ± 0.085; in that of GGCGTTTATC, 0.9746 ± 0.0018; in that of CATTATTGGG, 0.9851 ± 0.0017.
Next, GGATGGTTGG: 1.012 ± 0.0068.
On to GGCAGGAAAG, for which the switch fluorescence ratio worked out at 1 ± 0.011.
Next, GAGGGCACTT: 0.978 ± 0.043; ATAATCCTTG: 1.01 ± 0.005; TTTCACGAGC: 0.993 ± 0.091.
On to ATTTGGGAGT, for which the switch fluorescence ratio worked out at 1 ± 0.025.
For the sequence TACCGGGGGG, the switch fluorescence ratio was found to be 1.03 ± 0.029.
On to TGTGTTTGTT, for which the switch fluorescence ratio stood at 0.998 ± 0.017.
Next, ATTATGCTAT: 1.052 ± 0.0094; TTTCGTAATT: 1 ± 0.024.
On to TATTTCTCGT, for which the switch fluorescence ratio came to 1.01 ± 0.056.
Next, TTTAGGGGGC: 1.03 ± 0.032.
Next, TTTAGTTTGT: 0.99 ± 0.036.
